Assay: yeast display, Sf9 membrane polyspecificity reagent, FACS + sequencing; frameworks hold sequencing errors
Summary of the method: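 Polyreactivity labels are assigned by the sorting gate from which each nanobody was recovered. The gates were low and high (top ~1%), set on anti-HA fluorescence for expression and streptavidin fluorescence for reagent binding. Before sorting, galactose-induced (36–48 hours) yeast display cells were stained for 1 hour at 4 °C with 10% biotinylated, detergent-solubilized Sf9 membrane reagent.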

Sequence	polyreactivity (PSR sort gate)
QVQLVESAGGLVQEGGSLRIRCAASGRIYQLYTMGGYRQAPGKERELDAAITTGTSTSYAYSVKGRFTISRDNAKNTVYLLMYSLKPVDTAFYFCNKGSVSYYSVFVPYESDYGGQGTQVTVSS	low polyreactivity
QVQLVESAGGLVQEGGSLRLICAASGSIFEPYAMGWYRQAPGKERELVAAIRWSGGSTYYADSVKGRFTISRDNAKNTVYLQMNRLIPEDTAVYYCAKYFPAGYYYWGQGTQVTVSS	low polyreactivity
QVQLVESAGRLVQEGGSLRLRSAASGSIFKYNTMGWYRQAAGKERELVAGISYGGRTYYADSVKGRFTISRDNAKNTVYLHMNSLKPEYTAVYYCAARWSYFKTTHRNNYWGQGTQVTVSS	high polyreactivity
QVQLVESARGLVQAGGSLRLSCAASGYTIRANAMGWYRQAPGKEREFVAAISRSGGSTYYADSVKGRFTISRDNAKNTVYLQMNCLKPEDTAVYYCNNLYPYYATHTTRGLDYWGQGTQVTVSS	high polyreactivity
QVQLVESAVGLVQAGGSHRLSCAASAGTFYFYAMGWYRQAPGKERELVATITRGGSTYYADSVKGRFTISRDNAKNTVYLQMNSLNPEDTAVYYCAARQYSRRRSPVSTWYYYWGQGTQVTVSS	high polyreactivity
QVQLVESCGALVQAGGSLRLICAGSGSIFHVNAMGWSRPAHGKESELVAGISDGGSTYYADSVKGRFTISRYYAKNTVYFQMNSLKPEDSGVYYWATDYPSRWHVHRGFQGKYDYWGQGTQVTLSS	low polyreactivity
QVQLVESCGCLVQAGGSLRLSCAASGRTFFHYDMGWYRQAPGKDRELEAGISSGGRTKYADSVKGRFTISRDNAKNTVYLQMNSLNPEDTAAYYCAASYIVWLTRGAPRKRFDYWGQGSQVTVSS	high polyreactivity
QVQLVESCGGIVQAGGSLRLRCAASGFIFEYYAMVWYRQAPGKERELVAAINWGGGRTRYADSVKGRFTISPYNAKNTVYLQMNSLKPEDTAVYYCAARYGYRYDSWGQGTQVTVSS	high polyreactivity
QVQLVESCGGLFQAGGSLRLSCAPSGRTSWVYAMGWYRQAPAKERELVASIRKRTVVYADSVKGRFTISRENAKNTVYLQMNSLKPEETAVYYCNTDYSSTSQWRAANYWGQGTQVTVSS	high polyreactivity
QVQLVESCGGLIQAGGSLRLSCAASGSTFPYYAMGWYRQAPGKEREFVAAIRFSGSSTYYADSVKGRFTISRDNAMNTVFLQMNRLKPEDTAVYYCATDYWLPSYSYDYWGQGTQVTVSS	low polyreactivity
QVQLVESCGGLVQAGGSHRLSCDASGRIFTGYAMGWYRQAPGKERELVAAISWGGGRTYYADSVKGRFTISRDNAKNTVYLQMNSLKPEDTADYYCNRAAGGRSTPYYYWGQGTQVTVSS	high polyreactivity
QVQLVESCGGLVQAGGSLRLSCAASGFTFTWNAMGWYRQAPGKERELVAGITRGGSTNYADSVKGRFTISRDNAKNTVYLQMNSLKPEDTAVYYCNVSFYFHHAGYDYWGQGTQVTVSS	low polyreactivity
QVQLVESCGGLVQAGGSLRLSCAASGFTFYLYAMGWYRQAPGQERELVAAISSRGGTTYYADSVKGRFTISRDNAKNTVYLQMNSLKPEDTAVYYCNVARFYHIYDYWGQGTQVTVSS	high polyreactivity
QVQLVESCGGLVQAGGSLRLSCAASGITFGRNTMGWYRQAPGKERELVAAIDSGGNTYADSVKGRFTISRDNAKNTVYLQMNSLKPEDTAVYYCAVDGGEFSSYGYWGQGTQVTVSS	low polyreactivity
QVQLVESCGGLVQAGGSLRLSCAASGLTFIFNAMGWYRQAPGKEREFVADISSGVNTNYADSVKGRFTISRDNAKNTVYLQMNSLKPEDTAVYYCNKDVNAYGGASIRGYTMYYWGQGTQVTVSS	low polyreactivity
QVQLVESCGGLVQAGGSLRLSCAASGRIFSDYAMGWYRQAPGKERELVATITSGDSTNYADSVKGRFTISRDNAKNTVYLQMNSLKPEDTAVYYCNADRFADYDYWGQGTQVTVSS	low polyreactivity

From the nanobody polyreactivity screen of Harvey et al. (2022)
